This is an account of results in publication PMC5960625 (Biochemical pharmacology, 2018).

Test [1] addresses T1, constitutive androstane receptor (hCAR1) (Homo sapiens, UniProt Q14994).
T1 sequence (Q14994 109-352 limits assumed): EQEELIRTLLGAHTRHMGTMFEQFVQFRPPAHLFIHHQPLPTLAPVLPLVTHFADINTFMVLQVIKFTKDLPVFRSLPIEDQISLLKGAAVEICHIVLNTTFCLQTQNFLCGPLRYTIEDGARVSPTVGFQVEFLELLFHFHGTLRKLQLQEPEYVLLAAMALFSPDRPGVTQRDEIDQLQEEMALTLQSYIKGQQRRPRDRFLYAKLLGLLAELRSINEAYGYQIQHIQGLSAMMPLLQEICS
The test can be described thus: SPR. Format: binding.

Test [2] deals with GAL4DBD-SMRT fusion (silencing mediator for retinoid or thyroid hormone receptors). The test can be described thus: two-hybrid.
The target of test [3] is GAL4DBD-NCoR fusion (nuclear receptor co-repressor). Put plainly: two-hybrid.
The target of test [4] is T2, human CAR ligand-binding domain (hCAR1-LBD), purified (human).
T2 chain: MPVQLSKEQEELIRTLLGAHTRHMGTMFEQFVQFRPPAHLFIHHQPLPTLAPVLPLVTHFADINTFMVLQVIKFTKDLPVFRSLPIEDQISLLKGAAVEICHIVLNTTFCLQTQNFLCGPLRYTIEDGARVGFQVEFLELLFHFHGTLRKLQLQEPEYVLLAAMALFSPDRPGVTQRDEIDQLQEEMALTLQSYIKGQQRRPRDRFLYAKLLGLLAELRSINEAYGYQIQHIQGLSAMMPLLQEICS
Put plainly: HDX-MS.

One may read the Kd as a measure of binding affinity in units of concentration. Low values mean a tighter complex, high ones a looser complex. As for `CCOC(=O)Nc1ccc2c(c1)N(C(=O)CN(CC)CC)c1ccccc1CC2` [CINPA1], in test [1], the Kd is ~548 µM.
For the molecule “VP16AD-hCAR1 F217A (full length) (receptor)”, the loss of interaction in test [2] came to 50%; in test [3], 75%.
The matching figures for “VP16AD-hCAR1 Y224A (full length) (receptor)”: 50% and 75%.

B1: NCoR1-3 cofactor peptide (peptide)
peptide: ASNLGLEDIIRKALMGSFD
As for B1, the binding result in test [4] is “binds”.
